We go through 106 substances from the supplement of paper PMC12042874.

± gives the uncertainty stated by the source.

This data set is described as follows: amyloid nucleation score (Sup35N fusion, yeast selection) (log enrichment); library NNK1; higher = more nucleation; inactive = no reads after selection. In a few lines:
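DiMSum was used to calculate nucleation scores as log enrichment of output over input reads, centred on the mode score of non-aggregating sequences. Sequences with fewer than 100 input reads were not scored. Input and output came from Illumina sequencing of plasmid inserts in psi-negative yeast expressing peptides of 20 random codons fused to Sup35N, induced 24 hours with 100 μM copper sulfate and then grown 7 days at 30°C on medium lacking adenine and uracil.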

In the case of ENDYITCQMSQSVQNVVVVK, the amyloid nucleation score stood at 0.647 ± 0.43. Then DSEQGRLIYICFRVTTIRAL, with -0.062 ± 0.36.

In turn, TSGIYRRSDFLERHIS yielded an amyloid nucleation score of 0.993 ± 0.71. Then FITYRGSKVRAFLSR, with -1.46 ± 0.9; and YYPNKLFEYSKWNHAAGRVR, with 0.085 ± 0.64. ASFASKARHKR yielded an amyloid nucleation score of 0.728 ± 0.87. As to GYMCIVLIRG, the amyloid nucleation score stood at 1.12 ± 0.71. Take FLSEMWTKVICWVCCCPVYA: the amyloid nucleation score amounted to 4.64 ± 0.062. With GGQITYPMDLKVGRLCEDAL the entry was “inactive”; with RALGIDIRIFMVDDNSAFSI, 0.347 ± 1.1. With QWLAVVVIKVGLTWQYRFGG the figure was 0.198 ± 0.91; with WSKCVCHLPR, -0.897 ± 1.6; with SYQCGENYMFAYVNWSVGGN, 0.548 ± 0.84. With IEYFCWFAILGKPFESGIGS the figure was 0.991 ± 0.51; with MKDYHSDHIKIVQANHTEKV, -1.32 ± 2.4; with LSPRSSA, -0.322 ± 0.65. The substance LWDVRPWRWVWEWENVNYGK registered an amyloid nucleation score of 0.382 ± 0.54. With LSGFLSYYLCKPKA the figure was -0.887 ± 0.38. Then LMLGCGCECHVSSVSQKENM, with 0.301 ± 1.1; and TQCSFAANQF, with 0.768 ± 0.39; and SGHFILHGFYFCYKKCALIY, with 1.06 ± 0.81. LFIRGMIDDKVSITNYVC returned an amyloid nucleation score of -0.546 ± 0.31.

As to LFALNCDCM, the amyloid nucleation score was 7.448 ± 0.053. Then SYAIPMVAIFQVEGHLGHPG, with -0.211 ± 1.2; and NPNFDRGQRSLQLDIMVKWR, with 1.97 ± 0.19; and QLGWYLFGM, with 0.729 ± 0.4. Then IMCISFVFFNLKGYGGTG, with 3.11 ± 0.082; and LACCFIVSWFNGSGSLTSRS, with 7.497 ± 0.05. Then LSTYAGCRNAWPELQ, with -0.52 ± 0.4. As to SKSLFIIGTVPDRS, the amyloid nucleation score is -0.467 ± 0.52.

For the substance MSASLWRGNKVDHWHSECYK, the amyloid nucleation score is -0.661 ± 0.64.

Turning to LNRFVPASRWDHLHL, the amyloid nucleation score is -0.353 ± 1.7. Then FRCYVFANCD, with 1.59 ± 0.4; and RDHMAYYMSVVGSSKNPLRR, with “inactive”; and TVRGGLY, with -1.04 ± 0.62. In the case of EARWRQSC, the amyloid nucleation score came to 0.387 ± 0.36. With FINWLPNNDHFFCRNWICLQ the figure was 5.902 ± 0.05. Then VSLNASPL, with 0.902 ± 0.57; and QRSRHSIFQGILRGSNSSWD, with 1.12 ± 0.69; and LSMWSRHSMTPRFFLGLTPV, with 0.766 ± 0.69. Then SGYVNFHL, with “inactive”; and CGCETDMGSA, with “inactive”. SYIPSISAALYFVLVMRHWL yielded an amyloid nucleation score of -0.627 ± 0.49.

KGGPRPQMC came in with an amyloid nucleation score of -0.244 ± 0.27.

Substance FSDFN returned an amyloid nucleation score of -0.3 ± 0.42.

Substance RGGRWLMATWMMPGNGCLAA had an amyloid nucleation score of 0.708 ± 0.52.

NLILIR showed an amyloid nucleation score of 0.72 ± 0.61. Then CTSCQYKCNCWGCVRYQTWF, with 2.41 ± 0.27; and SCHIKK, with 0.12 ± 0.39; and TLYLPGLKPTRHECMDLHQG, with “inactive”. Then RCRYYCNR, with -0.152 ± 0.48; and TSAGKYHSSIILLYLWDYVT, with 0.845 ± 0.41. With IRLNVFFNMELMRLDLLWR the figure was 0.311 ± 0.72; with SHASSSSSGCAYQSLVIWIN, 4.45 ± 0.081; with SLDLL, -0.244 ± 0.46.

In turn, MMRTEIARVLCLSLF showed an amyloid nucleation score of 0.077 ± 0.37. As for WHLSMRLDLPT, the amyloid nucleation score was 0.363 ± 0.65. Then YGRRGNFPSRWTSQHADIKF, with -0.308 ± 0.57. Substance RDCPGL returned an amyloid nucleation score of -0.95 ± 2.7. With NKAVKLQSDPMGALC the figure was 0.701 ± 0.54; with THNFEGLSVWDLKDLKCCS, 5.16 ± 0.087. With IVDPWY the figure was 2.56 ± 0.12; with LLFFGYYAFDHICYAEYLSC, 2.71 ± 0.14. With IFNSATSTCNSRYIYIK the figure was 4.26 ± 0.074. On to IRKGSFPD, for which the amyloid nucleation score is -0.841 ± 0.82. Then YVRVRSIDVLQQKRSLFVRD, with 0.595 ± 0.97; and HNHSTYFHYRFGVSLVLTSR, with 2.29 ± 0.38. With GTNYYSSGML the figure was 0.114 ± 0.35; with RSCGQFLSWSACPFVSLRRR, 0.274 ± 0.46; with VWCRNAVDTMLIPMCTTPGY, 0.372 ± 0.6.

In turn, RQARFSFDLRFP displayed an amyloid nucleation score of 0.567 ± 0.35. Then CQDGLDNLNCGAMVYFVVGD, with 2.25 ± 0.22.

LALHSNNQLFF: the amyloid nucleation score was determined as 0.839 ± 0.81. With TIILSRLVEGVMQWAFMRAF, the amyloid nucleation score entry was “inactive”. The substance GSNIVSEYERLGRIMSV showed an amyloid nucleation score of -0.509 ± 1.2. Then GYGLSAL, with 1.08 ± 0.73; and VKSNFLHSGKIGYTSAVGFG, with -1.16 ± 1.9. On to RGDLSYYCRSNN, for which the amyloid nucleation score was -0.5 ± 1.4. Then FCHVRTL, with -0.97 ± 1.7.

In the case of VFRALKRVISRTYCMISFLK, the amyloid nucleation score was 0.458 ± 0.79. Then DLIYTDGLV, with -0.743 ± 0.24; and AGSGRGRGGCTSNRSDYSSG, with -0.849 ± 1.

Substance ATRDYVSGANDGIGPQMMWV had an amyloid nucleation score of 0.324 ± 0.49. Then NGVMESGNRRTLLRPTVVET, with -0.016 ± 1.2.

In the case of RGNRHTSGNVTL, the amyloid nucleation score was 0.045 ± 0.35. Consider IMEMG, for which the amyloid nucleation score was 0.11 ± 0.53. Substance HMRDLEDPQWSDY came in with an amyloid nucleation score of -0.711 ± 0.32.

The substance RDSNVGIFHNSR had an amyloid nucleation score of -1.35 ± 0.87. With NDSICTYSMAWGRERSGVCY the entry was “inactive”; with YSYFSPDFRRSQHQGGVCPA, 0.329 ± 0.53; with MRSMGLCTTGCQIDSRRVRW, 0.947 ± 0.61.

THHSTSVSGVDQW displayed an amyloid nucleation score of 0.289 ± 0.52. Then RLFFSE, with 0.117 ± 0.32; and SNNVFMAVNSSQRIQQFMLA, with 1.03 ± 0.14; and IGYITHITYSVLVL, with 0.371 ± 0.3.

As for YINYHCFMIRFQFILVYRYQ, the amyloid nucleation score result is “inactive”. With VCVWCKISPSTYCALIFGDL the figure was -0.181 ± 0.32. Then WWKRKTSFVSRSYQVRFAQF, with -0.058 ± 1.1.

VMKELLMTHLLSCCLYSLCL gave an amyloid nucleation score of 1.28 ± 0.34.

The substance CTNATVPASSTERV returned an amyloid nucleation score of 1.55 ± 0.5. Then TLNDYYCFMLCGAVNG, with 0.071 ± 0.63; and CSDRVKTLSFCWSPSVVFW, with -0.636 ± 0.95; and HLVLFYVSLITFARYSFMGV, with -0.058 ± 0.3. Consider CLEVGFVCWNCNRLFKCLCQ, for which the amyloid nucleation score came to 1.1 ± 0.56. With NLCSFFMFTIILGGNVGTFM the figure was 7.208 ± 0.044. Then AVSNLATEGRVYLKVRLESW, with -0.991 ± 2.4.
